Source: patent US20250109171A1, “COMPOUNDS AND COMPOSITIONS FOR TARGETED THERAPY OF RENAL DISEASES” (SHANGHAI MICURX PHARMACEUTICALS CO., LTD., priority 2021, published 2025)
Positions of bridges follow the written chain, without caps; N, C: chain ends. Non-standard residues stand in square brackets, D forms with d. Residues, ends and D or L forms follow the SMILES beside them. *: point of attachment. Succinyl(O21-dexamethasone) = C[C@@H]1C[C@H]2[C@@H]3CCC4=CC(=O)C=C[C@]4(C)[C@@]3(F)[C@@H](O)C[C@]2(C)[C@@]1(O)C(=O)COC(=O)CCC(=O)*; X1 = CC(C(=O)OCC(=O)[C@@]1(O)[C@H](C)C[C@H]2[C@@H]3CCC4=CC(=O)C=C[C@]4(C)[C@@]3(F)[C@@H](O)C[C@@]21C)C(C)C(=O)*; Dab = NCC[C@H](N)C(=O)O

How the values were obtained:
[1] = Rodent (mouse) PK model of intravenous administration: dexamethasone levels in kidney tissue; format: in vivo; settings: for Kidney drug (dexamethasone) concentration: T = 24 h, the last time point evaluated; for Kidney dexamethasone levels greater than those achieved through injection of unconjugated dexamethasone: drug concentration in kidney tissue, summary of Table 1
Procedure: Preferential renal targeting validating the delivery of compounds provided herein into kidneys (or at the site of a kidney injury) is evaluated, for example, by pharmacokinetic (PK) tests, such as in a standard rodent PK test. PK data are generally used to establish the key parameters predictive of the therapy outcome. Thus, a drug concentration (C) at given time points, drug concentration at the target tissue(s) (CTarget), area under the curve (AUC) for a plot monitoring the change in the systemic drug concentration over time and other parameters are generally predictive of therapeutic efficacy. For example, drug concentration at an organ affected by cancer is important for effective action of anticancer agents (as described, for example, by Zhang et al. in Drug Metabolism and Disposition. 2019, vol. 47, p. 1122).
Representative compounds provided herein were tested in a rodent PK model of intravenous administration performed analogously to methods described in the monograph Current Protocols in Pharmacology, 2005, 7.1.1-7.1.26, John Wiley & Sons, Inc. Illustrative mouse PK data for the compounds of Examples 1 and 2 are summarized in the Table 1 below.

[2] = test system: cisplatin-induced acute kidney injury (AKI); test: Cisplatin-induced acute kidney injury mouse model (blood CREA and BUN on day 3); format: in vivo, C57BL/6 mouse; settings: cisplatin 20 mg/kg i.p.; test articles i.v. after 1 h, 4 mg/kg; about 20% dexamethasone equivalent dosing; FIG. 1
Procedure: Specifically, in one of the tests, cisplatin (20 mg/kg) was administrated to C57BL/6 mouse (male, weight range 20-25 g) by intraperitoneal injection to induce acute kidney injury. After 1 h, testing articles (saline, or dexamethasone, or a compound of Example 1 or 2) were given by intravenously. On day 3, blood CREA (creatinine) and BUN (blood urea nitrogen) were determined.

[3] = T = 3 h, injection into mouse tail vein
[4] = T = 3 h, injection into mouse tail vein, dexamethasone 1 mg/kg, Examples 4 mg/kg

SMILES | Enhanced dexamethasone levels in kidney expressed per ratio vs. dosing of free dexamethasone [1, 3] | Kidney tissue concentration (dexamethasone levels in kidneys) [1, 4] [ng/g] | Kidney drug (dexamethasone) concentration [1] [ng/g] | Kidney dexamethasone levels greater than those achieved through injection of unconjugated dexamethasone [1] | Anti-inflammatory efficacy in the AKI model per BUN and CREA values, compared to dexamethasone [2] | Drug levels from standard injection of unconjugated drug ([1]; after only 6 h) | concentration at 3 h ([1]; kidney, intravenous, T = 3 h, injection into mouse tail vein, dexamethasone 1 mg/kg, Examples 4 mg/kg, read-out: Kidney tissue concentration (dexamethasone levels in kidneys)) [ng/g]
CC(C)C[C@@H]1NC(=O)[C@@H](Cc2ccccc2)NC(=O)[C@H](CCN)NC(=O)[C@@H](NC(=O)[C@H](CCN)NC(=O)[C@@H](NC(=O)CCC(=O)OCC(=O)[C@@]2(O)[C@H](C)C[C@H]3[C@@H]4CCC5=CC(=O)C=C[C@]5(C)[C@@]4(F)[C@@H](O)C[C@@]32C)[C@@H](C)O)CCNC(=O)[C@H]([C@@H](C)O)NC(=O)[C@H](CCN)NC(=O)[C@H](CCN)NC1=O [Example 2] ({Succinyl(O21-dexamethasone)}-T[Dab][Dab][Dab][dF]L[Dab][Dab]T; lactam 3-C) | 7.2 | 93.4 | 18.5 | ~7 fold | greatly increased anti-inflammatory efficacy | – | –
CC(C)C[C@@H]1NC(=O)[C@@H](Cc2ccccc2)NC(=O)[C@H](CCN)NC(=O)[C@@H](NC(=O)[C@H](CCN)NC(=O)[C@@H](NC(=O)C(C)C(C)C(=O)OCC(=O)[C@@]2(O)[C@H](C)C[C@H]3[C@@H]4CCC5=CC(=O)C=C[C@]5(C)[C@@]4(F)[C@@H](O)C[C@@]32C)[C@@H](C)O)CCNC(=O)[C@H]([C@@H](C)O)NC(=O)[C@H](CCN)NC(=O)[C@H](CCN)NC1=O (stereo partly shown) [Example 1] (X1-T[Dab][Dab][Dab][dF]L[Dab][Dab]T; lactam 3-C) | 9.4 | 122.2 | 21.5 | about 9 fold | greatly increased anti-inflammatory efficacy | – | –
C[C@@H]1C[C@H]2[C@@H]3CCC4=CC(=O)C=C[C@]4(C)[C@@]3(F)[C@@H](O)C[C@]2(C)[C@@]1(O)C(=O)CO [Dexamethasone, dexamethasone, reference compound] | 1 | – | – | – | – | virtually undetectable | 13
